# Data taken from patent US20180325836A1, “ULTRASONIC TRANSDUCERS SUITABLE FOR ULTRASONIC DRUG DELIVERY VIA A SYSTEM, WHICH IS PORTABLE AND WEARABLE BY THE PATIENT” (BKR IP Holdco LLC, priority 2015, published 2018).
# Columns and labels:
# rat skin = details: rats, after ultrasonic transdermal insulin delivery with transducer array
# Source text: The belly of the rats were shaved to produce a skin area as close in configuration as would be present in the human situation. The transducer arrays were placed directly onto the rat skin surface and adhered to the skin by means of an adhesive.
# A section of the skin where the transducer was placed is marked on the skin.
# rats = assay: Ultrasonically enhanced transdermal insulin delivery in live rats, blood glucose levels; format: in vivo, rat
# Source text: A four-element transducer was fabricated using four standard cymbal element transducers in one array system (Array #1) and four stacked cymbal element transducers in another system (Array #2). Array #1, the standard array, was set to operate at 20 k Hz frequency and at 125 mW/sq. cm intensity level. Array #2, the stacked array, was set to operate at 20 k Hz frequency and at 225 mW/sq. cm intensity level.
# The transducer's arrays were fitted with a reservoir at the bottom end, into which Humulin Regular Insulin (supplied by Eli Lilly Company) was inserted. A total of […] of insulin was added, providing 100 units of insulin for the each test.
# Two groups of test rates were assembled. The first group (Group-1) would receive the ultrasonic transmission while the second group would receive no ultrasound. In the second group (Group-2) the transducers arrays were loaded with insulin and the insulin was allowed to pool onto the surface of the rat skin, but there was no active ultrasonic transmission.
# Next a frequency generator was employed to propagate the pulsed ultrasonic transmission, which used 100 millisecond pulses, with a pulse rate of one pulse per second, a duty cycle of 10%, for one hour.
# Both Group-1 and Group-2 animals were tested for 120 minutes. Blood samples were taken from the animals according to standard investigative procedure every 30 minutes for the first hour and every hour after and analyzed for glucose levels and the presence of insulin. The Group-1 animals were exposed to ultrasound for 60 minutes, after which the ultrasound was terminated for the balance of the test period. Glucose levels in both groups were observed over the 120 minute period.
# [1] = Drug survivability after ultrasonic exposure (HPLC analysis of insulin); format: physicochemical
# Source text: Since the transducers of this invention are designed primarily for application in a drug delivery system the Applicant deemed it necessary to test the effect of the ultrasonic signal upon an active pharmaceutical substance. High intensity and high frequency ultrasound is theorized to be capable of inducing a cavitation effect within a drug, leading to an increase in temperature and a degradation of the drug molecule. For the following experiment Insulin (Humulin Regular-supplied by the Eli Lilly Company) was subjected to ultrasound emitted from a stacked array of the transducers of this invention, set to operate at 20 k Hz frequency and at 125 mW/sq. cm intensity level, for one, eight and eleven continuous hours of exposure. The insulin was placed in a plastic pouch within a hydrophone tank containing water and stirred during ultrasonic exposure. A control sample, which was untreated, but allowed to sit in the pouch and tank for one, eight and eleven hours, was also made. Samples were sent to Celsis Laboratories for independent analysis.
substance,measurement,setting,value
Insulin [Humulin Regular],skin damage at test area,rat skin,no skin damage
same,glucose level,"rats; Group-1 rats, insulin on skin with active ultrasound (20 k Hz), minute 30 and minute 60",significant reduction
same,glucose level after termination of the ultrasound,"rats; Group-1 rats, minute 60 to 120, ultrasound terminated at minute 60",rise
same,glucose level,"rats; Group-2 rats, insulin on skin, no ultrasound, minute 30 and minute 60",no lowering
same,glucose level,"rats; Group-2 rats, no ultrasound, minute 60 to 120",no decrease
same,permeation through the skin,"rats; insulin placed on the skin or delivered via transdermal patch, without ultrasound",will not permeate
same,degradation of insulin or excipient solution (HPLC scan),"[1]; control sample, no ultrasound, left in pouch and tank",no degradation
same,degradation of insulin or excipient solution (HPLC scan),"[1]; ultrasonically treated sample, eight hours of continuous exposure, 20 k Hz, 125 mW/sq. cm",no degradation
same,change in the insulin versus untreated insulin (independent analysis),"[1]; ultrasound from stacked array, 20 k Hz, 125 mW/sq. cm, one, eight and eleven continuous hours",no change
